Among the data in PMC2726290 (2008) are Kd values, retold here.

The target in assay [1] is T1, hPHD-HD1 complex (hPygo1 PHD 333-402 with hBCL9 HD1) (human, UniProt Q9Y3Y4 333-402; O00512 177-205).
T1 chain 1: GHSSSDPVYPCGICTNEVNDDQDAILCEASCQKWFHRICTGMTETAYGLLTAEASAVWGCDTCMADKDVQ
T1 chain 2: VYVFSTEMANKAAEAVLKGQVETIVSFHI
The assay can be described thus: ITC. In general terms: In ITC the heat of successive injections is recorded.

Assay [2] deals with T2, hPygo1 PHD finger V350E (human, UniProt Q9Y3Y4 333-402, V350E).
T2 sequence: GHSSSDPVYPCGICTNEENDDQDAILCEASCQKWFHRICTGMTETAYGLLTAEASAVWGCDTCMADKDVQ
The assay can be described thus: ITC.

The target of assay [3] is hPygo1 PHD finger mutated at N351 (human, UniProt Q9Y3Y4 333-402). Kind of assay: ITC; N351A.
Assay [4] addresses hPygo1 PHD finger mutated at Q354 (human, UniProt Q9Y3Y4 333-402). Kind of assay: ITC; Q354A.

No end group written: not given here.

Broadly, the Kd is the free concentration of one partner at which half of the binding sites on the other are occupied at equilibrium, for simple one-to-one binding. ARTK(Me)QTARKSTGGKA [H3K4me1 15-mer histone H3 tail peptide] registered a Kd in assay [1] of 2.2 µM. For the molecule ARTKQTARKSTGGKA (trimethyl-lysine at K4) [H3K4me3 15-mer histone H3 tail peptide], the Kd was found to be 98 µM in assay [2], 7.1 µM in assay [3] and 13.8 µM in assay [4]. For GRTKQTARK (dimethyl-lysine at K4) [H3K4me2 9-mer whose A1 was substituted with a glycine], binding in assay [1] was characterised by a dissociation constant (Kd) of 99.8 µM.
